Test results reported in doi:10.1101/2021.11.02.466875.
Read-outs that look alike come from different tables or passages of the source.

Key:
Assay in all cases: BLI
[1] = molecular target: RapC (Bacillus velezensis SQR9)
[2] = molecular target: RapC (Bacillus velezensis SQR9); remark: listed apart in the source
[3] = molecular target: RapC (Bacillus velezensis SQR9); remark: listed apart in the source
[4] = molecular target: RapC (Bacillus velezensis SQR9); remark: listed apart in the source

Q: Which Kd [1] does the source give for ComA (natural protein) here?
A: 5.49 nM

Q: And the Kd [2]?
A: 26.8 nM

Q: What about the Kd [3] of the same substance?
A: 13.5 nM

Q: What about the Kd [4] of the same substance?
A: 8.69 nM
